{
  "source": "paper PMC7423924",
  "about": "“A fluorogenic cyclic peptide for imaging and quantification of drug-induced apoptosis” (Nature Communications, 2020)",
  "system": "human monocyte-derived macrophages (MDMs)",
  "assay": "Phagocytosis of pHrodo-labeled apoptotic neutrophils by MDMs",
  "format": "cell-based",
  "settings": "protein S 25 nM, AF647-Annexin V 25 nM",
  "procedure": "Neutrophils were cultured in the absence (black) or presence of Apo-15 (gray: 100 nM, white: 300 nM). Data presented as mean values ± SEM (n = 3). b Representative histograms of glucocorticoid-treated human MDMs after phagocytosis of pHrodo^TM-labeled neutrophils in the presence of different concentrations of Apo-15. Cells were analyzed using a 5L LSR cytometer with MDM identified based on their distinctive forward and side scatter properties (n = 4). Gating strategy in Supplementary Fig. 15A. c Flow cytometric quantification of phagocytosis of pHrodo^TM-labeled neutrophils by human MDMs. Human MDMs and neutrophils were co-cultured in the absence or presence of protein S (25 nM) and Apo-15 (60 or 600 nM) or AF647-Annexin V (25 nM). Data presented as mean values ± SEM (n ≥ 3). d Representative brightfield and fluorescence microscope images (from four independent experiments) of Apo-15-treated human neutrophils (green) in co-culture with human MDMs. […]\nOne potential limitation to the use of annexins for imaging apoptosis is their interference with the clearance of apoptotic cells by phagocytes. […] We examined whether Apo-15 affected the engulfment of apoptotic cells using a well-established in vitro assay to quantify the extent of phagocytosis in human monocyte-derived macrophages (MDMs) in the presence of the PS-opsonin protein S (Fig. 4b)[32],[33]. […]",
  "note": "Several values for one entry are separate records, joined by “and”; a condition that tells them apart may be missing. Equal entries are not always repeated.",
  "data": [
    {"molecule": "Annexin V: fluorescently-labeled (AF647) annexin V, PS-binding protein (protein, UniProt P08758 2-320, looked up, AF647 label) Annexin A5: AQVLRGTVTDFPGFDERADAETLRKAMKGLGTDEESILTLLTSRSNAQRQEISAAFKTLFGRDLLDDLKSELTGKFEKLIVALMKPSRLYDAYELKHALKGAGTNEKVLTEIIASRTPEELRAIKQVYEEEYGSSLEDDVVGDTSGYYQRMLVVLLQANRDPDAGIDEAQVEQDAQALFQAGELKWGTDEEKFITIFGTRSVSHLRKVFDKYMTISGFQIEETIDRETSGNLEQLLLAVVKSIRSIPAYLAETLYYAMKGAGTDDHTLIRVMVSRSEIDLFNIRKEFRKNFATSLYSMIKGDTSGDYKKALLLLCGEDD", "values": [
      {"measurement": "Phagocytosis assay (%)", "setting": "40 min, 37 °C, single replicates", "value": "30.0% and 35.0% and 33.0%"},
      {"measurement": "Reduction of the phagocytic capacity of MDMs", "setting": "Apo-15 60 or 600 nM", "value": "~ 50%"}
    ]}
  ]
}
